Data on eight molecules can be found in patent US20240277865A1 (ACADEMIA SINICA, published 2024).

Substitutions are numbered along the chain they refer to.

Assay [1] has as its target MSLN expressed on the cell surface of human cancer cell lines N87 and H226 (human, UniProt Q13421 37-598). Kind of assay: cell-based or functional assay.
Assay [2] deals with T1, mesothelin (MSLN) (UniProt Q13421 296-580).
T1 construct: also called immobilized MSLN
Kind of assay: ELISA, MSLN coated on plate, IgG1 detected with anti-human IgG HRP.

In assay [3] the target is T1, mesothelin (MSLN). Kind of assay: ELISA, MSLN coated on plate, IgG1-vcMMAE detected with anti-human IgG HRP.

T1 sequence (Q13421 other isoform, or with tags, fused parts or gaps limits assumed): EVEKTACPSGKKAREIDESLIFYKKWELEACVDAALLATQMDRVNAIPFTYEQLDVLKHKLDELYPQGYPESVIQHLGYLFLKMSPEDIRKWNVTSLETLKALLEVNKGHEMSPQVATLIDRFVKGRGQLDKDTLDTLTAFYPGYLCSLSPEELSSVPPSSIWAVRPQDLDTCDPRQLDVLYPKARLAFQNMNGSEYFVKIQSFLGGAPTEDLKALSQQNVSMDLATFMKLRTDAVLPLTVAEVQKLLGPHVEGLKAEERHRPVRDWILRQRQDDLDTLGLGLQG

B1: CHS5 IgG (antibody, V domains shown)
VH: EVQLVESGGGLVQPGGSLRLSCAASGFTITDRTIHWVRQAPGKGLEWVASIFPTKGVTTYADSVKGRFTISADTSKNTAYLQMNSLRAEDTAVYYCARGRYWMDYWGQGTLVTVSS
VL: DIQMTQSPSSLSASVGDRVTITCRASQDVKEGVAWYQQKPGKAPKLLIDQSHRLYSGVPSRFSGSGSGTDFTLTISSLQPEDFATYYCQQYYAWPSTFGQGTKVEIKR
notes: also called IgG1-CHS5
B1: in assay [1], the “IgG1-AL1-PE38KDEL IC50 (nM), cell viability of N87 cells” value (from here on “IgG1-AL1-PE38KDEL IC50 (nM)”) is 0.06 nM. This molecule also gave an EC50 with mesothelin (MSLN) [2] of 4.67 ng/mL.

B2: ALA12 IgG (antibody, V domains shown)
VH: B1 VH with T30G, D31N, R32W, S50L, F52W, T54E, K55S, V57A, T59L
VL: B1 VL with K30R, E31D, S51M, H52V, Y92F, A93N, S96V
Regarding B2, in assay [1], the “IgG1-AL1-PE38KDEL IC50 (nM)” value worked out at 0.1 nM. Moreover, the concentration giving a half-maximal response (EC50) with mesothelin (MSLN) [2] worked out at 8.37 ng/mL.

B3: CHS5-vcMMAE (antibody, V domains shown)
VH: B1 VH
VL: B1 VL
notes: also called CHS5 IgG1-vcMMAE
Consider B3, for which the “IgG1-vcMMAE IC50 (nM), cell viability of N87 cells” value (“IgG1-vcMMAE IC50 (nM)” below) in assay [1] came to 15 nM. The molecule further had an EC50 with mesothelin (MSLN) [3] of 9.56 ng/mL.

B4: ALA12-vcMMAE (antibody, V domains shown)
VH: B1 VH with T30G, D31N, R32W, S50L, F52W, T54E, K55S, V57A, T59L
VL: B1 VL with K30R, E31D, S51M, H52V, Y92F, A93N, S96V
notes: also called ALA12 IgG1-vcMMAE
Consider B4, for which, in assay [1], the “IgG1-vcMMAE IC50 (nM)” value is 39.9 nM. The EC50 with mesothelin (MSLN) [3] was determined as 10.5 ng/mL.

B5: CHS7 IgG (antibody, V domains shown)
VH: B1 VH with T30D, D31K, R32E, T33A, F52Y, T54H, K55S, V57F, T59L
VL: B1 VL with K30E, E31D, D49G, Q50I, S51K, H52D, R53L, A93R
As to B5, the “IgG1-AL1-PE38KDEL IC50 (nM)” value in assay [1] was 0.06 nM. Moreover, the 50% effective concentration (EC50) with mesothelin (MSLN) [2] came out at 10.3 ng/mL.

B6: CHS8 IgG (antibody, V domains shown)
VH: B1 VH with T30S, D31K, R32A, T33S, F52W, V57F, M103L
VL: B1 VL with Q50E, S51R, H52E, Y92N, A93T, S96A
As to B6, the “IgG1-AL1-PE38KDEL IC50 (nM)” value in assay [1] worked out at 0.01 nM. This molecule came in with a 50% effective concentration (EC50) with mesothelin (MSLN) [2] of 5.05 ng/mL.

B7: CHS8-vcMMAE (antibody, V domains shown)
VH: B1 VH with T30S, D31K, R32A, T33S, F52W, V57F, M103L
VL: B1 VL with Q50E, S51R, H52E, Y92N, A93T, S96A
notes: also called CHS8 IgG1-vcMMAE
For B7, the “IgG1-vcMMAE IC50 (nM)” value in assay [1] is 24.6 nM. Further, the 50% effective concentration (EC50) with mesothelin (MSLN) [3] worked out at 9.26 ng/mL.

B8: CHS7-vcMMAE (antibody, V domains shown)
VH: B1 VH with T30D, D31K, R32E, T33A, F52Y, T54H, K55S, V57F, T59L
VL: B1 VL with K30E, E31D, D49G, Q50I, S51K, H52D, R53L, A93R
notes: also called CHS7 IgG1-vcMMAE
On to B8, for which, in assay [1], the “IgG1-vcMMAE IC50 (nM)” value turned out to be 25.9 nM. The EC50 in the assay with mesothelin (MSLN) [3] is 16.3 ng/mL.
